Test results from the Human Domainome abundance scans (Beltran et al. 2025).

B1: Gamma-crystallin S, residues 96 to 176; numbered along this chain, P22914 (parent)
chain: IQIFEKGDFSGQMYETTEDCPSIMEQFHMREIHSCKVLEGVWIFYELPNYRGRQYLLDKKEYRKPIDWGAASPAVQSFRRI

Variants of: B1
Assay: abundance fitness (aPCA) (normalised: wild type 0, dead -1); higher = more abundant; growth selection in yeast, the domain comes from the species named
Conditions: Homo sapiens

Abundance fitness: each site, then its substitutions
P21: C -0.011, S 0.019, Q 0.023, E -0.028, I -0.053, T -0.012, L -0.002, K -0.016, M -0.057, Y -0.109, N -0.015, G 0.004, R -0.106, A -0.043, F 0.075, W 0.037, V 0.009, D -0.063
F27: S 0.006, P -0.001, G 0.017, C -0.094, V 0.014, D -0.156, M 0.014, K -0.018, A 0.033, N -0.141, H 0.101, L 0.015, R 0.02, I 0.104, Q 0.021, W 0.03, Y -0.011
E15: C -0.137, K 0.147, T -0.064, D -0.046, G -0.044, P -0.038, Q 0.018, F -0.05, V -0.013, W -0.062, A -0.011, Y 0.115, H -0.095, L -0.078, I -0.183, M -0.18, R -0.057
F9: D -0.409, W -0.018, H 0.067, V -0.12, R -0.126, Y -0.008, S -0.068, K -0.095, T -0.051, I -0.009, M 0.061, P -0.481, E -0.18, C 0.054, N 0.068, G -0.035, A -0.064, Q 0.027
D19: N -0.193, T -0.059, Y 0.009, M -0.097, G -0.035, H 0.143, Q 0.181, C -0.003, F -0.116, R -0.015, W -0.024, A -0.005, V -0.038, P -0.237, K -0.114, L -0.124, E -0.018, I -0.144
M24: Q -0.097, K 0.335, R -0.005, W 0.115, S -0.088, T 0.007, E -0.052, L 0.002, D -0.11, I -0.017, C -0.016, A -0.054, P -0.099, Y -0.095, H -0.099
S22: L -0.022, N 0.001, K 0.062, F -0.035, Q -0.019, I 0.033, A 0.023, Y 0.142, E -0.034, T -0.08, M -0.094, H -0.01, C 0.02, P -0.907, V 0.017, G -0.015, W 0.082, R -0.016
T16: C 0.012, W 0.078, D -0.002, G 0.006, M 0.061, P 0.102, Y 0.018, R 0.003, V -0.035, A 0.026, N 0.024, I -0.055, H -0.003, K -0.129, Q -0.108, F 0.148, E 0.046, L 0.049
S10: M -0.033, T -0.157, R -0.018, K 0.006, A -0.039, D -0.12, L 0.005, I -0.059, Q 0.022, V -0.003, C -0.081, Y 0.068, W -0.047, E 0.013, G -0.004, N 0.069, P -0.733, F -0.091
E18: I 0.079, L -0.021, C 0.006, K 0.017, G 0.038, F -0.007, M -0.066, D -0.153, R -0.028, T -0.046, N 0.072, P -0.067, A -0.087, V 0.002, W 0.014, H -0.039, S 0.016, Y -0.032, Q 0.009
T17: F -0.007, L 0.022, V -0.031, R -0.012, Y -0.352, N -0.02, M -0.059, I 0.037, D -0.051, K 0.074, A 0.022, E -0.069, W 0.021, G -0.013, P 0.075, C 0.027, S -0.068, Q -0.005
C20: N -0.134, T -0.086, E -0.144, A -0.004, P -1.04, K -0.027, G -0.352, R -0.235, Q -0.002, Y -0.035, M -0.008, F -0.222, W -0.065, H -0.398, I 0.023, S -0.054, V -0.087, L -0.142, D -0.754
Q26: E 0.079, R 0.009, K -0.079, A -0.018, Y 0.082, V 0.009, M -0.04, G 0.044, T -0.047, I -0.065, W 0, P -0.021, C -0.123, F -0.033, D 0.073, S -0.035
D8: I 0.025, T 0.063, Y 0.078, L 0.074, A 0.038, K 0.162, N 0.074, S 0.093, C 0.111, R 0.081, V 0.039, F 0.066, H 0.088, P -0.012
H28: A 0.045
Y14: P -0.993, A 0.049, G 0.028, R -0.004, Q 0.128, N 0.063, T 0.086, D -0.01, H 0.034, W -0.056, V -0.002, F -0.011, K -0.009, M -0.166, I -0.003, C -0.027, E 0.113, S 0.07
G11: F -0.294, V -0.208, E -0.01, A 0.041, H -0.021, Y -0.094, S 0.06, W -0.171, D -0.009, I -0.372, P 0.012, Q -0.003, K 0.105, M 0.062, R -0.135, N -0.002, L -0.137, C 0.066
I23: E -0.945, G -0.142, R -0.28, K -0.588, C -0.031, S -0.038, V 0.004, A 0, P 0.02, T -0.033, N -0.041, Q -0.398, F 0.001, Y 0.024, M -0.041, H -0.201, L -0.152, W 0.014
E25: W -0.434
M13: K -0.032, H 0.005, S -0.023, Q 0.019, A -0.011, E 0.028, Y 0.094, F -0.04, D -0.032, C -0.012, N -0.083, W -0.048, R -0.01, P 0.027, T 0.027, I 0.062, V -0.017, G -0.041
Q12: G 0.033, E -0.053, V 0.005, H -0.04, N 0.09, A -0.02, M 0.001, F -0.053, S 0.023, R 0.025, L -0.014, Y 0.035, T 0.053, C -0.093, D 0.012, P 0.013
G7: Y -0.025
